The source of these data is paper PMC5632138 (Journal of molecular biology, 2017).

In test [1] the target is T1, Full-length ETV4 Ile372Ala (UniProt P43268 1-484, Ile372Ala).
T1 sequence (looked up): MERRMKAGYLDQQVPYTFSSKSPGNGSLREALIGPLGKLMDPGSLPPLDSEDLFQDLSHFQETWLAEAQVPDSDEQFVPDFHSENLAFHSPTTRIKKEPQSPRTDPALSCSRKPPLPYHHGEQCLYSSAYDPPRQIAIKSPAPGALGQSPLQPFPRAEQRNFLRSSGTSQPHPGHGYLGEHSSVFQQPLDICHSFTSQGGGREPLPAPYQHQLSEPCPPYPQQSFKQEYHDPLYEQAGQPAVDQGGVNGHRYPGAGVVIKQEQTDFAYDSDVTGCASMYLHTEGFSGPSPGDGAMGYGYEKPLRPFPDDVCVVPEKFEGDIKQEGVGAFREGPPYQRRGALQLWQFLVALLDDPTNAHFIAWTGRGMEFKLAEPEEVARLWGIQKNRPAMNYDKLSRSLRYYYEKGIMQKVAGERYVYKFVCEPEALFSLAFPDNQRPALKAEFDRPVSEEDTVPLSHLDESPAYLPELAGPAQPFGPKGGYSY
The test can be described thus: BLI. (In general: In BLI a coated tip is dipped into the sample, and binding shifts an interference pattern.)

Test [2] addresses T2, Full-length ETV4 (ETV4^1–484) (UniProt P43268 1-484).
T2 sequence (looked up): T1 sequence (looked up) with A372I
The test can be described thus: BLI.

Residue numbers refer to the chain shown, from its start.

B1: MED25 ACID (residues 391–553), biotinylated ligand for biolayer interferometry (domain or fragment, human, UniProt Q71SY5 391-553, looked up)
chain: GQQSVSNKLLAWSGVLEWQEKPKPASVDANTKLTRSLPCQVYVNHGENLKTEQWPQKLIMQLIPQQLLTTLGPLFRNSRMVQFHFTNKDLESLKGLYRIMGNGFAGCVHFPHTAPCEVRVLMLLYSSKKKIFMGLIPYDQSGFVNGIRQVITNHKQVQQQKLE
modifications: biotin (biotinylated; D-biotin added at the induction point)
As a reminder, the Kd is the concentration at which binding is half-saturated. Consider B1, for which the binding result in test [1] is reported as “binds”. In addition, the dissociation constant (Kd) in test [2] was determined as 5 nM.
